# From the nanobody polyreactivity screen of Harvey et al. (2022)
# Assay: yeast display, Sf9 membrane polyspecificity reagent, FACS + sequencing; frameworks hold sequencing errors
# How it was run: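 Genes from sorted yeast were amplified by colony PCR, read by MiSeq 2 × 250 sequencing and filtered on CDR length. These cells carried a synthetic nanobody library in Saccharomyces cerevisiae BJ5465 and were sorted by FACS into low and high (top ~1%) gates on anti-HA and streptavidin fluorescence. Polyreactivity is labelled according to the gate of origin.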
row,Sequence,polyreactivity (PSR sort gate)
1,QVQLVESGGGLVQAGGSLRLSCAASGFIFYRNTMGWYRQAPGKERELVAAISVSGGSTNYADSVKGRFTISRDNAKNTVYLQMNSLKPEDTAVYYCAARVRDSLVYGGWDDYWGQGTQVTVSS,high polyreactivity
2,QVQLVESGGGLVQAGGSLRLSCAASGFIFYRYALGWYRQAPGKERELVAAISRSGGSTYYADSVKVRFTISRDNAKNTVYLQMNSLKPEDTAVYYCAVTGYWYYHDHYSYPSRYYYWGQGTQVTVSS,high polyreactivity
3,QVQLVESGGGLVQAGGSLRLSCAASGFIFYRYAMGWYRQAPGKERELVAAISGSGGRTYYADSVKGRFTISRDNAKNTVYLQMNSLKPEDTAVYYCAADKQAYVTDDYWGKGTQVTVSS,high polyreactivity
4,QVQLVESGGGLVQAGGSLRLSCAASGFIFYRYAMGWYRQAPGNERELVAAISSGGSTYYADSVKGRFTISRDNAKNTVYLQMNSLKPEDTAVYYCNAYHNYWRYRTDEMNYWGQGTQVTVSS,high polyreactivity
5,QVQLVESGGGLVQAGGSLRLSCAASGFIFYRYARGWYRQAPGQERELVAAITTSGARTYYADSVKGRFTISRDNAKNTVYLLMNSLKPEDTAGYSCAASPTPRVKMDYWGQGTQVTVSS,low polyreactivity
6,QVQLVESGGGLVQAGGSLRLSCAASGFIFYSNAMGWYRQAPGKERELVAAISRRGGSTYYADSVKGRFTISRDNAKNTVYLQMNSLKPEDTAVYYCAARVVSGFDSWGQGTQVTVSS,high polyreactivity
7,QVQLVESGGGLVQAGGSLRLSCAASGFIFYSNAMGWYRQAPGKERELVATITGDGGTTYYADSVKGRFTISRDNAKNTVYLQMNSLKPEDTAVYYCAKDYIYRGYYTDFRYEDYDYWGQGTQVTVSS,low polyreactivity
8,QVQLVESGGGLVQAGGSLRLSCAASGFIFYSYAMGWYRQAPGKERELVAAIDWDDGTTYYADSVKGRFTISRDNAKNTVYLQMNSLKPEDTAVYYCAAESYYGAYDYWGQGTQVTVSS,high polyreactivity
9,QVQLVESGGGLVQAGGSLRLSCAASGFIFYSYAMGWYRQAPGKERELVAAISTSGGSTYYADSVKGRFTISRDNAKNTVYLQMNSLKPEDTAVYYCNARGTRASRYDYWGQGTQVTVSS,high polyreactivity
10,QVQLVESGGGLVQAGGSLRLSCAASGFIFYSYAMGWYRQAPGKERELVAAISWSGGRTYYADSVKGRFTISRDNAKNTVYLQMNSLKPEDTAVYYCNADDYSFSFTVPYYIEYDYWGQGTQVTVSS,high polyreactivity
11,QVQLVESGGGLVQAGGSLRLSCAASGFIFYSYGMGWYRQAPGKERELVASITSSGTRTYYADSVKGRFTISRDNAKHTVYLQMNSLKPEDTAVYYCAASRFYYGIAYYRYDYWGQGTHVTVSS,high polyreactivity
12,QVQLVESGGGLVQAGGSLRLSCAASGFIFYTKAMGWSRQAPGKERELVATITTSGGRTYYADSVKGRFTISRDNAKNYVYLQMYSMKPEDTAFYYSATRYVVIEYDYWGQGTQVTVSS,low polyreactivity
13,QVQLVESGGGLVQAGGSLRLSCAASGFIFYVNAMGWYREAPGNERQLVAAISLIGGSTYYADSVKGRFTISRDNAKNTVYLQMNSLIPEDTAVYYCAADPFPGVYDDAIIDYDYWGQGTQVTVSS,low polyreactivity
14,QVQLVESGGGLVQAGGSLRLSCAASGFIFYVYAMGWYRQARGKERELVAAISGGGDSTYYADSVKGRFTISRDNAKNTVYLQMNSLKPEHTAVYYCAAEPWANTPGEAGSPFDYWGQGTQVTVSS,low polyreactivity
15,QVQLVESGGGLVQAGGSLRLSCAASGFIFYYNAMGWDRQAPGKERELVAAIDSGGRTNYADSVKGRFTISRDNAKNTVYLQMNSLKPEDTAVYYCATDPYQPYEGDYWGQGTQVTVSS,low polyreactivity
16,QVQLVESGGGLVQAGGSLRLSCAASGFIFYYNAMGWYRQAPGKERELVAAIDSGGRTNYADSVKGRFTISRDNAKNTVYLQMNSLKPEDTAVYYCAADVITYATYGTRKFQRYGYWGQGTQVTVSS,low polyreactivity
17,QVQLVESGGGLVQAGGSLRLSCAASGFIFYYNAMGWYRQAPGKERELVAGISRSAGSTYYADSVKGRFTISRDNAKNTVYLQMNSLKPEDTAVYYCAALYLSYITGTSYYWGQGTQVTVSS,low polyreactivity
18,QVQLVESGGGLVQAGGSLRLSCAASGFIFYYNAMGWYRQAPGKERELVATIRGSGGSTYYADSVKGRFTISRDTAKNTVYLHMNSLKPEDTAVYYCATTIYGLTSRLYYWGQGTQVTVSS,high polyreactivity
19,QVQLVESGGGLVQAGGSLRLSCAASGFIFYYYAMGWYRPAPGKERELVAAISVRGGRTYYADSVKGRFTISRDNAKNTVYLQMNSLKPEDTAVYYCAADLYNRGRGSSQSYRTGYDYWGQGTQVTVSS,high polyreactivity
20,QVQLVESGGGLVQAGGSLRLSCAASGFIFYYYAMGWYRQAPGKERELVAGIDKTGGSTYYADSVKGRFTISRDNAKNPVYLQMNSLKPDDTAVYYCNAPYYRGGKDGYWGQGTQVTVSS,high polyreactivity

row,Sequence,polyreactivity (PSR sort gate)
1,QVQLVESGGGLVQAGGSLRLSCAASGFIFYYYDMGWYRQAPGKERELVAAISTGGSTYYADSVKGRFTISRDNAKNTVYLQMNSLKPEDTAVYYCAADSYWSPYDYWGQGTQVTVSS,high polyreactivity
2,QVQLVESGGGLVQAGGSLRLSCAASGFIIAPNAMGWYRQAPGKDRELVAAISGGGSTYYADSVKGRFTISRDNAKNTVYLQMNSLKPEDTAVYYCAVAGRRGDEYDYWGQGTQVTVSS,low polyreactivity
3,QVQLVESGGGLVQAGGSLRLSCAASGFIIARNTMGWYRQAPAKERELVAAISSSGGSTYYADSVKGRFTISRDNAKNTFYLQMNCLKPEDTAVYYCNKGYTGLYGYDYWGQGTHVTVSS,high polyreactivity
4,QVQLVESGGGLVQAGGSLRLSCAASGFIIGDYAMGWYRQAPGKERELVAAITISGGGTYYADSVKGRFTISRDNAKNTVYLQMNSLKPEDTAVYYCAAGYYDLNLDTDFGFDYWGQGTQVTVSS,low polyreactivity
5,QVQLVESGGGLVQAGGSLRLSCAASGFIIGLYAMGWYRQAPGKERELVAAISGSGGSTYYADSVKGRFTISRDNAKNTVYLQMNSLKPEDTAVYYCNGAHGVHTYVYRYCYWGQGTQVTVSS,low polyreactivity
6,QVQLVESGGGLVQAGGSLRLSCAASGFIIGSYAMGWYRQAPGKERELVAAISRRTTNTYYADSVKGRFTISRDNAKNTVYLQMNSLKPEDTAVYYCARVTWYESDYWGQGTQVTVSS,high polyreactivity
7,QVQLVESGGGLVQAGGSLRLSCAASGFIIGSYTMGWNRQAPRKERELVASITKRGGSTYYADSVKGRFTISRDNAKNTVYLQMNSLKPEDTEVYYCAATYLFSHRSRYDYWGQGTQVTVSS,high polyreactivity
8,QVQLVESGGGLVQAGGSLRLSCAASGFIIIGYVMGWYRQSPGKERELVAAITSSVGSTYYADSVKGRFTISRDNAKNPVYLQMNSLKPEDTAVYYCAAEYYLLWSGMEYWGEGTQVTVSS,low polyreactivity
9,QVQLVESGGGLVQAGGSLRLSCAASGFIILINVMGWYRQAPGKERELVAVITGGGTTNYADSVKGRFTFSRDNAKNTVYLQMNSLKPEDTAVYYCAVDAGAGDNDYWGQGTQVTVSS,low polyreactivity
10,QVQLVESGGGLVQAGGSLRLSCAASGFIIRKYAMGWYRPAPGKEWELVAAISGRADSTYYADSVKGRFTISRDNAKNTVYLQMNSLKPDDTAVYYCAAYWHSKIGKGYDYWGQGTQVTVSS,high polyreactivity
11,QVQLVESGGGLVQAGGSLRLSCAASGFIISVYAMGWYRQAPGKERELVARIDSGGSTYYADSVKGRFTISRDNAKNTVYLQMNSLKPEDTAVYYCATDEGTVGGQQLRPLMDYWGQGTQVTVSS,low polyreactivity
12,QVQLVESGGGLVQAGGSLRLSCAASGFIITGNAMGWYRKAPGKERELVAAITSGGNTYYADSVKGRFTISRDNAKNTVYLQMNSLKPEDTAVYYCAKYVPHWRILMEYWGQGTQVTVSS,low polyreactivity
13,QVQLVESGGGLVQAGGSLRLSCAASGFIITQSAMGWYRQAPGTERELVAAISGNGGRTYYADSVKGRFTISRDNAKNTVYLQMNSLKPEDTAVYYCAVTRPGRRYPFCYDYWGQGTQVTVSS,low polyreactivity
14,QVQLVESGGGLVQAGGSLRLSCAASGFIIVKYAMGWYRQAPGKERELVAAITRGGRTYYADSVKGRFTISRDNAKNTVYLQMNSLKPEDTAVYYCNKARFYDPWLGKYGYKYDYWGQGTQVTVSS,high polyreactivity
15,QVQLVESGGGLVQAGGSLRLSCAASGFIIVRYAMGWYRQAPGKERELVAAITRSGGSTYYADSVKGRFTISRDNAKNTVYLQMNSLKPEDTAVYYCNAYRQGFTYARMDYWGQGTQVTVSS,high polyreactivity
16,QVQLVESGGGLVQAGGSLRLSCAASGFIIVRYAMGWYRQAPGKERELVASITKSGGSTYYADSVKGRFTISRDNAKNTVYLQMNSLKPEDTAVYYCAATVVSRTRYYYRGQRYDYWGQGTQVTVSS,high polyreactivity
17,QVQLVESGGGLVQAGGSLRLSCAASGFIIVYYAMGWYRQAPGKERELVAAISRSGGSTYYADSVKGRFTISRDNAKNTVYLQMNSLKPEDTAVYYCNAVNVLAPSRGRRYDYWGEGTQVTVSS,high polyreactivity
18,QVQLVESGGGLVQAGGSLRLSCAASGFIIYGYVMGWYRQAPGKERELVAAINSSSGRTYYADSVKGRFTISRDNAKNTVYLQMKSLKPEDTAVYYCAAYYYGSYDGTPYDYWGQGTQVTVSS,low polyreactivity
19,QVQLVESGGGLVQAGGSLRLSCAASGFIIYKYAMGWYRQAPGKERELVAAISWSGGSTYYADSVKGRFTISRDNAKNTVYFQMNSLKPEDTAVYYCAARQWSQGWYDYWGQGTQVTVSS,high polyreactivity
20,QVQLVESGGGLVQAGGSLRLSCAASGFILARYAMGWYRQAPGKERELVAVISSGGSSTFYADSVKGRFTISRDNAKNTVYLQMNSLKPEDTAVYYCAARYKSSKKVGFDYWGQGTQVTVSS,high polyreactivity
